{
  "source": "patent US20250230211A1",
  "about": "(NANTCELL, published 2025)",
  "binders": {"B1": {"name": "αCTLA4-7 (antibody, human IgG1, kappa, V domains shown)", "VH": "EVQLVESGGGLVQPGGSLRLSCAASGFTFTSYSMHWVRQAPGKGLEWVSGISGSGRSTSYADSVKGRFTISRDNSKNTLYLQMNSLRAEDTAVYYCARDLMAFNLVRAGGFDVWGQGTLVTVSS", "VL": "DIQMTQSPSSLSASVGDRVTITCQASQDISNYLNWYQQKPGKAPKLLIYDASNLETGVPSRFSGSGSGTDFTFTISSLQPEDIATYYCQQGDAWPWTFGQGTKVEIKR"}},
  "key": {"murine CTLA4": {"target": "T1, murine CTLA4 (murine, UniProt P09793 36-161, limits assumed)", "T1 construct": "also called Mouse CTLA4", "experiment": "SPR, antibody captured by anti-human IgG Fc, analyte by OneStep injection at 40 nM and 20 nM", "experimental": "(§1) Surface plasmon resonance (SPR) studies were conducted with the purified fusion proteins to assess their binding affinities to relevant targets. The SPR kinetic assay was performed by immobilizing rabbit α-human IgG Fc antibodies (Thermo) on a PCH sensor (Sartorius) as the capture molecule. All molecules of interest were then captured on the sensor surface by α-IgG1-Fc and Fc domain interaction. Binding kinetics against IL-2Rβ, human CTLA4, and murine CTLA4 were determined by OneStep injection at 40 nM and 20 nM of each analyte. […] The αCTLA4-scFv has higher affinity to CTLA4 than when the binding domain is in IgG form."}, "human CTLA4": {"target": "T2, human CTLA4 (human, UniProt P16410 36-161)", "T2 sequence (looked up)": "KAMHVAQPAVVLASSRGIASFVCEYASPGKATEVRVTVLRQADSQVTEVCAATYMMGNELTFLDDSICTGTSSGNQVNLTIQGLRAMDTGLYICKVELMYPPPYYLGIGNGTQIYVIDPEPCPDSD", "experiment": "SPR, antibody captured by anti-human IgG Fc, analyte by OneStep injection at 40 nM and 20 nM", "experimental": "as §1"}},
  "data": [
    {"binder": "B1", "values": [
      {"measurement": "Kd", "setting": "murine CTLA4", "result": "0.13 to 2.1", "unit": "nM"},
      {"measurement": "Kd", "setting": "human CTLA4", "result": "1.1 to 1.6", "unit": "nM"}
    ]}
  ]
}
